Results taken from the supplement of paper PMC10724198.
± gives the standard deviation of the averaged measurements.

Tested on: Saccharomyces cerevisiae
Test: protein stability index of tFT-peptide fusion (C-terminal peptide) (PSI (0-1 scale)); higher = more stable (slower turnover)
Details: genetic background: wild type; temperature: 30 C
Method: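 Multiplexed protein stability (MPS) profiling in S. cerevisiae. Random 12-aa peptides (tFT-X12 library) are fused to the C-terminus of a sfGFP-mCherry tandem fluorescent timer, after mCherry and a GGGS linker. Cells are FACS-sorted into 8 mCherry/sfGFP bins and deep-sequenced. The protein stability index (PSI) is the read-weighted bin average, scaled from 0 (unstable) to 1 (stable). Only peptides with >10 reads are reported; cells were grown at 30 °C in SC-His with glucose.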
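Further: PSI is a weighted mean of sequencing reads over stability bins, variants kept only with over 10 reads, mCherry proximal and sfGFP distal, peptide attached via GGGS linker.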

Sequence | protein stability index
GGGERLDDIVGG | 0.801 ± 0.081
GGGEVLFHLRRA | 0.673 ± 0.019
GGGEYHTIMRTT | 0.786 ± 0.2
GGGGCDVGGCVG | 0.675 ± 0.039
GGGGGEAGVIGR | 0.892 ± 0.15
GGGGGGACRPVG | 0.659 ± 0.094
GGGGGGAEGAGW | 0.711 ± 0.02
GGGGGGGCGGDR | 0.654 ± 0.08
GGGGGGGGGGGV | 0.709 ± 0.053
GGGGGGGGRGWG | 0.63411 ± 1.7e-05
GGGGGGGVAGGV | 0.715 ± 0.041
GGGGGGIGVGMG | 0.705 ± 0.024
GGGGGGKEAVVR | 0.649 ± 0.053
GGGGGMEPGCGP | 0.682 ± 0.043
GGGGGREPGCGP | 0.707 ± 0.01
GGGGGVGGVGRV | 0.668 ± 0.062
GGGGGVGVEGEP | 0.723 ± 0.067
GGGGGWVRWASG | 0.689 ± 0.064
GGGGLGRGKGCW | 0.706 ± 0.03
GGGGMASRGGNK | 0.685 ± 0.027
GGGGMGGCSDDG | 0.742 ± 0.17
GGGGRAALRWYG | 0.651 ± 0.014
GGGGSGRRIGCR | 0.696 ± 0.035
GGGGSRGRVGDI | 0.7182 ± 0.0022
GGGLLMVAASRC | 0.634 ± 0.014

Sequence | protein stability index
GGGRAAIVRGGW | 0.682 ± 0.014
GGGRAEPLEPGV | 0.648 ± 0.07
GGGRGGAAEGAV | 0.781 ± 0.07
GGGRRWPGGSGG | 0.775 ± 0.075
GGGRVSAGGDSG | 0.751 ± 0.071
GGGVGLGGYGEG | 0.636 ± 0.055
GGGVGMLRRSGG | 0.689 ± 0.054
GGGVSFWVGVVA | 0.656 ± 0.042
GGGWDWWFGVPG | 0.792 ± 0.13
GGGWGGEAVRVW | 0.65 ± 0.055
GGGWGRVALGQG | 0.612 ± 0.015
GGHRRQGKKFTP | 0.711 ± 0.067
GGKARKRKDKRA | 0.645 ± 0.1
GGKNVKCLDRGL | 0.693 ± 0.014
GGLNIGIGYSVG | 0.643 ± 0.1
GGLRWVLGAQAV | 0.707 ± 0.063
GGLVGSSVWGWG | 0.703 ± 0.04
GGLVVRCGVTSS | 0.695 ± 0.15
GGNKETKITRIE | 0.698 ± 0.011
GGPLDASICRSS | 0.694 ± 0.061
GGPPPHHKTRPG | 0.603 ± 0.063
GGPRDNEGSWWV | 0.7122 ± 0.0029
GGQGRYSAPPSR | 0.624 ± 0.02
GGREDGKRGRQK | 0.684 ± 0.055
GGRGFRGVLRSN | 0.696 ± 0.069

Sequence | protein stability index
GGRGGEGLVREG | 0.667 ± 0.019
GGRGRGMGGIFG | 0.667 ± 0.053
GGRGRRAGGSSG | 0.745 ± 0.016
GGRGRRRGGVGG | 0.701 ± 0.011
GGRGRRWAGPRC | 0.702 ± 0.039
GGRGVVVGQGAG | 0.705 ± 0.027
GGRGWAGRGGSG | 0.707 ± 0.052
GGRPRGLVAGAA | 0.657 ± 0.022
GGRTEYILQLKK | 0.686 ± 0.021
GGRVARRGAERG | 0.654 ± 0.14
GGRVGGSMGVGG | 0.659 ± 0.028
GGRWMWWAGAAG | 0.79 ± 0.3
GGSSWSLGGGCG | 0.713 ± 0.023
GGTGRRRVGRRG | 0.696 ± 0.018
GGTVAGLYILGF | 0.6301 ± 0.001
GGVAADGGGGRG | 0.675 ± 0.043
GGVAAVGGPWGN | 0.75 ± 0.052
GGVASGGCFWGR | 0.6761 ± 0.0053
GGVECVRGTGGR | 0.659 ± 0.046
GGVGLVGEVCPI | 0.688 ± 0.028
GGVGRGADASLA | 0.622 ± 0.017
GGVPGEGTGGRE | 0.644 ± 0.027
GGVRVPRVDVVG | 0.618 ± 0.042
GGWAGGRQGCGG | 0.77 ± 0.012
GGWAHGEGAGDC | 0.614 ± 0.028

Sequence | protein stability index
GGWFLLTRLGNW | 0.684 ± 0.035
GGWGWGERRSRE | 0.658 ± 0.06
GGWHVVGGEGVG | 0.524 ± 0.0082
GGWSHMHLGLDG | 0.665 ± 0.024
GGYDFRCPCCGV | 0.723 ± 0.025
GHGFPSLPLILS | 0.57 ± 0.076
GHGLLYLIDLCS | 0.638 ± 0.074
GHLCVPWFGLVL | 0.659 ± 0.11
GHRTIPHSNCLS | 0.65 ± 0.0099
GHSLARHRHRGS | 0.701 ± 0.0095
GHSNRDCFGIKC | 0.621 ± 0.024
GHWRQCSVAEGA | 0.643 ± 0.0024
GHYLLCPQGQSD | 0.6675 ± 0.0024
GIARRSHSNETV | 0.766 ± 0.078
GIEAKPLEGKTQ | 0.7026 ± 0.0018
GIGLYMWRNSKW | 0.796 ± 0.04
GIGRGLGGLKSG | 0.617 ± 0.026
GIGRRIGSELSF | 0.668 ± 0.047
GIHFKIHKSSSN | 0.647 ± 0.013
GIKTRTTRVRGE | 0.706 ± 0.018
GILPDSCRSNTG | 0.623 ± 0.081
GILVALGSPLLV | 0.592 ± 0.048
GINRLRNKEKEE | 0.775 ± 0.073
GISGRPDGGRGG | 0.658 ± 0.0071
GKEEGRETGREG | 0.741 ± 0.038

Sequence | protein stability index
GKFKKRIRRGIK | 0.695 ± 0.011
GKGDEPKAPTDR | 0.65 ± 0.028
GKGTRGTRRGGK | 0.632 ± 0.024
GKIKKTTDKILI | 0.639 ± 0.11
GKILSNNQIFKR | 0.702 ± 0.057
GKKNNENKYDMR | 0.7304 ± 0.0051
GKKRANQSRSLP | 0.76 ± 0.19
GKLHKNTDEIET | 0.762 ± 0.062
GKLKVKIYESSK | 0.658 ± 0.061
GKLRGTGGRAGE | 0.669 ± 0.012
GKLWTIIFPLFF | 0.503 ± 0.035
GKPFAWVAVVGD | 0.729 ± 0.051
GKREGRGRKRGG | 0.807 ± 0.092
GKRYLIKKRKKT | 0.698 ± 0.021
GKSESATLMVTV | 0.697 ± 0.18
GKSGGAVRGCGG | 0.657 ± 0.044
GKSGVTGAGEKR | 0.681 ± 0.06
GKSLLPATYDYY | 0.677 ± 0.04
GKTITNENPKGH | 0.705 ± 0.021
GKVSVSGRELGG | 0.65 ± 0.033
GLARPLYALYRR | 0.618 ± 0.081
GLASLTVGAASV | 0.671 ± 0.011
GLATISARYFCL | 0.647 ± 0.064
GLCCFWSYRASR | 0.687 ± 0.035
GLCHFVRLSCFC | 0.5186 ± 0.0024

Sequence | protein stability index
GLCRGHMSTMVD | 0.641 ± 0.064
GLCVLVASCGRG | 0.664 ± 0.15
GLDEVKVVSKKK | 0.689 ± 0.051
GLDHRLALLYPS | 0.736 ± 0.036
GLFCGLGVGTCG | 0.621 ± 0.059
GLGEDVGLGLGW | 0.669 ± 0.051
GLGGNVLRVIFA | 0.561 ± 0.021
GLGLASWGDLEL | 0.739 ± 0.039
GLGLHKDGSTGG | 0.6093 ± 0.003
GLGMWSVRCAGW | 0.649 ± 0.0067
GLHVPLTGFCFC | 0.63 ± 0.02
GLIRGFLRYPGM | 0.691 ± 0.033
GLKWTGLEWHFL | 0.693 ± 0.041
GLLRSHYLDRGF | 0.693 ± 0.047
GLPRFFKNPPVV | 0.6445 ± 0.0043
GLPWRGVGGGSG | 0.719 ± 0.038
GLQPVGLYPFQL | 0.668 ± 0.008
GLRFVPLPLRPV | 0.73 ± 0.029
GLRLFAPRWPQA | 0.713 ± 0.058
GLRLHVQCFGRV | 0.699 ± 0.024
GLSGSPIPFIRL | 0.731 ± 0.021
